3 molecules from US20200079833A1 (AstraZeneca / MedImmune, published 2020) can be followed below.

The chains are these.
T1: GLP-1R (INS1e assay) (UniProt P32301 22-463, limits assumed)
T1 sequence (looked up): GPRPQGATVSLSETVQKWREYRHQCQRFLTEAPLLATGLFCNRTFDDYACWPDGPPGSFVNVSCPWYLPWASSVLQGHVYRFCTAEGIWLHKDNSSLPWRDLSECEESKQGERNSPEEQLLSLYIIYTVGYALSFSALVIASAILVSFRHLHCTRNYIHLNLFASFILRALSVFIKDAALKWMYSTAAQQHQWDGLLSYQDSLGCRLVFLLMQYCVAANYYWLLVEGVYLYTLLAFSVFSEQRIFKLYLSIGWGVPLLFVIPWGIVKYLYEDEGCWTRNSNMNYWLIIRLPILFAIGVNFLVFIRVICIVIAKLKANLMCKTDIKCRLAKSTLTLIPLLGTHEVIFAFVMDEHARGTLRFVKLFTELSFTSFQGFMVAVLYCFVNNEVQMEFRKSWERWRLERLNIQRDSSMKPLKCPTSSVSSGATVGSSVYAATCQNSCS

B1: SEQ ID NO 169 (peptide)
peptide: H[Aib]EGS[αMeF]TSDV[αMeS]S[αMeF]LEGEAA[αMeK]E[αMeF]IA[αMeF]VVK([Ahx-Ahx-Ahx-Lauroyl])GG-NH2
modifications: N-terminus assumed
SMILES: CCCCCCCCCCCC(=O)NCCCCCC(=O)NCCCCCC(=O)NCCCCCC(=O)NCCCC[C@H](NC(=O)[C@@H](NC(=O)[C@@H](NC(=O)[C@](C)(Cc1ccccc1)NC(=O)[C@H](C)NC(=O)[C@@H](NC(=O)[C@](C)(Cc1ccccc1)NC(=O)[C@H](CCC(=O)O)NC(=O)[C@](C)(CCCCN)NC(=O)[C@H](C)NC(=O)[C@H](C)NC(=O)[C@H](CCC(=O)O)NC(=O)CNC(=O)[C@H](CCC(=O)O)NC(=O)[C@H](CC(C)C)NC(=O)[C@](C)(Cc1ccccc1)NC(=O)[C@H](CO)NC(=O)[C@](C)(CO)NC(=O)[C@@H](NC(=O)[C@H](CC(=O)O)NC(=O)[C@H](CO)NC(=O)[C@@H](NC(=O)[C@](C)(Cc1ccccc1)NC(=O)[C@H](CO)NC(=O)CNC(=O)[C@H](CCC(=O)O)NC(=O)C(C)(C)NC(=O)[C@@H](N)Cc1c[nH]cn1)[C@@H](C)O)C(C)C)[C@@H](C)CC)C(C)C)C(C)C)C(=O)NCC(=O)NCC(N)=O
B2: SEQ ID NO 168 (peptide)
peptide: H[Aib]EGS[αMeF]TSDV[αMeS]S[αMeF]LEGEAA[αMeK]E[αMeF]IA[αMeF]VVK([Ahx-Ahx-Lauroyl])GG-NH2
modifications: N-terminus assumed
SMILES: CCCCCCCCCCCC(=O)NCCCCCC(=O)NCCCCCC(=O)NCCCC[C@H](NC(=O)[C@@H](NC(=O)[C@@H](NC(=O)[C@](C)(Cc1ccccc1)NC(=O)[C@H](C)NC(=O)[C@@H](NC(=O)[C@](C)(Cc1ccccc1)NC(=O)[C@H](CCC(=O)O)NC(=O)[C@](C)(CCCCN)NC(=O)[C@H](C)NC(=O)[C@H](C)NC(=O)[C@H](CCC(=O)O)NC(=O)CNC(=O)[C@H](CCC(=O)O)NC(=O)[C@H](CC(C)C)NC(=O)[C@](C)(Cc1ccccc1)NC(=O)[C@H](CO)NC(=O)[C@](C)(CO)NC(=O)[C@@H](NC(=O)[C@H](CC(=O)O)NC(=O)[C@H](CO)NC(=O)[C@@H](NC(=O)[C@](C)(Cc1ccccc1)NC(=O)[C@H](CO)NC(=O)CNC(=O)[C@H](CCC(=O)O)NC(=O)C(C)(C)NC(=O)[C@@H](N)Cc1c[nH]cn1)[C@@H](C)O)C(C)C)[C@@H](C)CC)C(C)C)C(C)C)C(=O)NCC(=O)NCC(N)=O
B3: SEQ ID NO 166 (peptide)
peptide: H[Aib]EGS[αMeF]TSDV[αMeS]S[αMeF]LEGEAA[αMeK]E[αMeF]IA[αMeF]VVK([γGlu-γGlu-γGlu-Lauroyl])GG-NH2
modifications: N-terminus assumed
SMILES: CCCCCCCCCCCC(=O)N[C@@H](CCC(=O)N[C@@H](CCC(=O)N[C@@H](CCC(=O)NCCCC[C@H](NC(=O)[C@@H](NC(=O)[C@@H](NC(=O)[C@](C)(Cc1ccccc1)NC(=O)[C@H](C)NC(=O)[C@@H](NC(=O)[C@](C)(Cc1ccccc1)NC(=O)[C@H](CCC(=O)O)NC(=O)[C@](C)(CCCCN)NC(=O)[C@H](C)NC(=O)[C@H](C)NC(=O)[C@H](CCC(=O)O)NC(=O)CNC(=O)[C@H](CCC(=O)O)NC(=O)[C@H](CC(C)C)NC(=O)[C@](C)(Cc1ccccc1)NC(=O)[C@H](CO)NC(=O)[C@](C)(CO)NC(=O)[C@@H](NC(=O)[C@H](CC(=O)O)NC(=O)[C@H](CO)NC(=O)[C@@H](NC(=O)[C@](C)(Cc1ccccc1)NC(=O)[C@H](CO)NC(=O)CNC(=O)[C@H](CCC(=O)O)NC(=O)C(C)(C)NC(=O)[C@@H](N)Cc1c[nH]cn1)[C@@H](C)O)C(C)C)[C@@H](C)CC)C(C)C)C(C)C)C(=O)NCC(=O)NCC(N)=O)C(=O)O)C(=O)O)C(=O)O

Starred links: 1 amine or outer side, 2 acyl side, 3 side chain; linkers in the order of their positions; H or OH if unused. Non-standard residues stand in square brackets, D forms with d. Groups on a side chain read outwards from the residue. No end group written: not given here. *: point of attachment. γGlu = O=C(O)[C@H](CCC(=O)[*:2])N[*:1]; αMeF = C[C@](N)(Cc1ccccc1)C(=O)O; αMeK = C[C@](N)(CCCCN)C(=O)O; Lauroyl = CCCCCCCCCCCC(=O)*; αMeS = C[C@](N)(CO)C(=O)O; Aib = CC(C)(N)C(=O)O; Ahx = NCCCCCC(=O)O

The assay has as its target T1, GLP-1R (INS1e assay). The assay is described as follows: cell-based or functional assay.
For B1, the “INS1e assay EC50 GLP-1 R n1” value is 0.0931 nM, the “INS1e assay EC50 GLP-1 R n2” value is 0.269 nM and the “INS1e assay EC50 Mean pM GLP-1R” value came to 181 pM.
As for B2, the “INS1e assay EC50 GLP-1 R n1” value is 0.189 nM, the “INS1e assay EC50 GLP-1 R n2” value was found to be 0.462 nM and the “INS1e assay EC50 Mean pM GLP-1R” value was found to be 326 pM.
Regarding B3, the “INS1e assay EC50 GLP-1 R n1” value was 0.233 nM, the “INS1e assay EC50 GLP-1 R n2” value came out at 0.687 nM and the “INS1e assay EC50 Mean pM GLP-1R” value was 460 pM.
